Laboratory results from article PMC2912373, “Low-Density Lipoprotein Receptor-Related Protein 1 (LRP1) Mediates Neuronal Aβ42 Uptake and Lysosomal Trafficking” (PLoS ONE, 2010).
“Also recorded” adds a separate entry of the source.

Legend:
N2a-mLRP4 cells = experiment: MTS redox cell viability assay in Aβ42 treated cells; format: cell-based, mouse; conditions: 3 µM Aβ42, 72 h; only in mLRP4-expressing cells, not N2a-pcDNA3; p<0.05, n = 3
Procedure: We hypothesized that Aβ42 treatment might increase cell death in mLRP4-overexpressing N2a cells because we detected increased co-localization of Aβ42 with lysosomes in these cells. We treated N2a-pcDNA3 and N2a-mLRP4 cells with Aβ42 for 24, 48 and 72 h and assessed cell viability by reduction of the MTS redox dye. Aβ42 was prepared identically to the FAM-Aβ42 experiments.
Figure 5 Increased susceptibility to Aβ42-mediated cell death in LRP1 minireceptor-expressing cells. N2a-pcDNA3 and N2a-mLRP4 cells were incubated with increasing concentrations of Aβ42 for 24, 48 and 72 h and cell viability was assessed by the reduction of the MTS dye.
N2a-pcDNA3 and N2a-mLRP4 cells were plated at 16,250 cells/cm^2 in 48-well plates and grown overnight. Serial dilutions of freshly prepared synthetic Aβ42 were prepared by diluting the Aβ42 stock with internalization media. Culture media was then replaced with media containing 0, 1 or 3 µM Aβ42 and cells were incubated for an additional 24, 48 or 72 h. Cell viability was measured by using one-solution cell titer kit at each corresponding time point (Promega, Madison, WI). After 4 h labeling, the soluble reduced formazan product was quantified by directly reading the plate in a Bio-Tek plate reader. After background subtraction from media-only containing wells, results were represented as % of the corresponding control and untreated N2a cells.

LRP1 = conditions: ref [23], [36]; cited from earlier work
N2a-mLRP4-Tless cells = experiment: Kinetic analysis of 125I-RAP endocytosis; format: cell-based, mouse; conditions: 5 nM 125I-RAP, 4°C 60 min, then 37°C; internalized/total cell-associated ligand; triple determinations
Procedure: Figure 4 LRP1 endocytosis is required for Aβ42 uptake and accumulation in N2a cells. A, clathrin heavy chain (CHC) knockdown increases cell surface levels of mLRP4. N2a-mLRP4 cells were infected with CHC shRNA lentivirus or pLKO, control lentivirus. The levels of cell surface and total pools of mLRP4 were determined by flow cytometric analyses with anti-HA antibody in non-permeabilized and saponin-treated cells, respectively. The surface-to-total ratio were calculated and plotted as fold-change to control-infected cells. Right panel, decreased CHC levels and normal mLRP4 levels in transduced N2a-mLRP4 cells were verified by Western blot from sister cultures. […] The intracellular level of FAM-Aβ42 was determined by flow cytometric analyses of pronase-treated cells. […] The cell surface and total pools of the LRP1 minireceptor were determined by flow cytometric analyses with anti-HA antibody as in A in N2a-mLRP4 cells and in N2a cells stably transfected with a deletion variant lacking the cytoplasmic tail of mLRP4 (mLRP4-Tless). The surface-to-total ratios were then calculated and plotted as fold-change to N2a-mLRP4 cells. […] At each time point, the amounts of ligand that is either internalized or that remains at the cell surface were determined and the ratios of internalized to total cell-associated ligand were plotted against time. […]

## Aβ42: Unlabeled synthetic Aβ42 obtained from Bachem
N2a-mLRP4 cells
  cell viability (reduction of MTS dye): slight yet significant decrease; also recorded: Decreased viability

## RAP: LRP1 chaperone of 39-kDa, model extracellular ligand for LRP1; labeled with Alexa-488 for uptake
LRP1
  affinity of RAP binding to LRP1: high affinity

B1: ^125I-RAP: iodinated RAP protein used at 5 nM for kinetic analysis of endocytosis (protein, UniProt P30533 35-357, looked up)
Alpha-2-macroglobulin …: YSREKNQPKPSPKRESGEEFRMEKLNQLWEKAQRLHLPPVRLAELHADLKIQERDELAWKKLKLDGLDEDGEKEARLIRNLNVILAKYGLDGKKDARQVTSNSLSGTQEDGLDDPRLEKLWHKAKTSGKFSGEELDKLWREFLHHKEKVHEYNVLLETLSRTEEIHENVISPSDLSDIKGSVLHSRHTELKEKLRSINQGLDRLRRVSHQGYSTEAEFEEPRVIDLWDLAQSANLTDKELEAFREELKHFEAKIEKHNHYQKQLEIAHEKLRHAESVGDGERVSRSREKHALLEGRTKELGYTVKKHLQDLSGRISRARHNEL
modifications: 125I-labeled
notes: iodinated RAP protein used at 5 nM for kinetic analysis of endocytosis
N2a-mLRP4-Tless cells
  endocytosis rate for 125I-RAP in N2a-mLRP4-Tless vs N2a-mLRP4 cells: decreased
